Assay results published in patent publication US20030170203A1 (Human Genome Sciences, published 2003).

Key:
Assay in all cases: flow cytometry on transiently transfected cells
[1] = molecular target: T1, LTβR on transiently transfected cells (UniProt P36941 31-435, limits assumed)
T1 construct: whole, on cells
Experimental: (§1) One million cells, in 0.1 ml of FACS buffer (PBS, 0.1% BSA, 0.1% NaN₃), were incubated with 0.1-1 microgram of protein or antibody at RT for 15 min. The cells were washed with 3 ml of FACS buffer, reacted with biotinylated primary antibody, and stained with PE-conjugated secondary antibody at RT for 15 min. Cells were then washed again, resuspended in 0.5 microgram/ml of propidium iodide, and live cells were gated and analyzed on a FACScan using the CellQuest software (BD Biosciences).

[2] = molecular target: T2, HveA on transiently transfected cells (UniProt Q92956 39-283, limits assumed)
T2 construct: whole, on cells
T2 sequence (looked up): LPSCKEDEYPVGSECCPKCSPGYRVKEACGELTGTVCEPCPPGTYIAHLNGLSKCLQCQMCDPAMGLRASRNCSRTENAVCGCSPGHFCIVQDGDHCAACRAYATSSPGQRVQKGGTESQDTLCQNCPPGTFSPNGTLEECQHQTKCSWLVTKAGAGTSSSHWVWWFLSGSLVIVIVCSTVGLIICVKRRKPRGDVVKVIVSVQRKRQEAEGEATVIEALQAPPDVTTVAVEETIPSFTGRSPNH
Experimental: as §1

[3] = molecular target: T3, DR6 on transiently transfected cells (UniProt O75509 42-655, limits assumed)
T3 construct: whole, on cells
T3 sequence (looked up): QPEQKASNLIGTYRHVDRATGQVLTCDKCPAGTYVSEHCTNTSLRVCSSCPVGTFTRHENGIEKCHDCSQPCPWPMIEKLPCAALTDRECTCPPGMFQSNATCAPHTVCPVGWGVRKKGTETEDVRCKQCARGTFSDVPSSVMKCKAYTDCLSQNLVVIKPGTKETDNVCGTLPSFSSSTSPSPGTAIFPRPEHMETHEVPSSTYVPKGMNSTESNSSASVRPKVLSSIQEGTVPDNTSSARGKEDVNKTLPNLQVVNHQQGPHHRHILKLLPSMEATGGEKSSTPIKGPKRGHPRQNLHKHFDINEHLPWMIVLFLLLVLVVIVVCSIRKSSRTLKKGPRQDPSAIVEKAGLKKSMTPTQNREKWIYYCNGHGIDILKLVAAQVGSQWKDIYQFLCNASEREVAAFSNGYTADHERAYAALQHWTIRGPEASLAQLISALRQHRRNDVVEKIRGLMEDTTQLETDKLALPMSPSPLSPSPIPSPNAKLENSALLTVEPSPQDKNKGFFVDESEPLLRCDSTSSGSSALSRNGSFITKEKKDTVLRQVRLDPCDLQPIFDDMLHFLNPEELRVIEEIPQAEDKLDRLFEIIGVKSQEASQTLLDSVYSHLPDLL
Experimental: as §1

[4] = molecular target: T4, DR4 on transiently transfected cells (UniProt O00220 24-468, limits assumed)
T4 construct: whole, on cells
T4 sequence (looked up): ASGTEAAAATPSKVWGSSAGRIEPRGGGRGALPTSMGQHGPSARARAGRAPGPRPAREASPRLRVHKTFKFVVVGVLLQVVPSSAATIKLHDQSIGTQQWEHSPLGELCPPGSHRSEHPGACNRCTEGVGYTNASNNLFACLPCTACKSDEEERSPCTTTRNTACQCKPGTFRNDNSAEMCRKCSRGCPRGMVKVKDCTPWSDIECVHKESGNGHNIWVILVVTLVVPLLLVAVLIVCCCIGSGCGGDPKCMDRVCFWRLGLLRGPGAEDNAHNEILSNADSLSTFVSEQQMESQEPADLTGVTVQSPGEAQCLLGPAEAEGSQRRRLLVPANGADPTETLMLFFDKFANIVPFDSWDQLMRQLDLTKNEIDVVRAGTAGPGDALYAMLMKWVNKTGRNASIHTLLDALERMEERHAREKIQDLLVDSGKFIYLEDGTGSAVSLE
Experimental: as §1

[5] = molecular target: T5, CD27 on transiently transfected cells (UniProt P26842 20-260, limits assumed)
T5 construct: whole, on cells
T5 sequence (looked up): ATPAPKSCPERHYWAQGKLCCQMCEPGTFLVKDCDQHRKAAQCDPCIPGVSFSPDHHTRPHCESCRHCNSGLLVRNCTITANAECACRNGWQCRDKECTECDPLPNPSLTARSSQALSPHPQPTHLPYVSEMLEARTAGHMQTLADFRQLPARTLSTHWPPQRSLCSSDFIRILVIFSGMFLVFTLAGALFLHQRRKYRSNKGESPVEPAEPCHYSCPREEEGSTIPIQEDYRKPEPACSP
Experimental: as §1

[6] = molecular target: T6, TNFR2 on transiently transfected cells (UniProt P20333 23-461, limits assumed)
T6 construct: whole, on cells
T6 sequence (looked up): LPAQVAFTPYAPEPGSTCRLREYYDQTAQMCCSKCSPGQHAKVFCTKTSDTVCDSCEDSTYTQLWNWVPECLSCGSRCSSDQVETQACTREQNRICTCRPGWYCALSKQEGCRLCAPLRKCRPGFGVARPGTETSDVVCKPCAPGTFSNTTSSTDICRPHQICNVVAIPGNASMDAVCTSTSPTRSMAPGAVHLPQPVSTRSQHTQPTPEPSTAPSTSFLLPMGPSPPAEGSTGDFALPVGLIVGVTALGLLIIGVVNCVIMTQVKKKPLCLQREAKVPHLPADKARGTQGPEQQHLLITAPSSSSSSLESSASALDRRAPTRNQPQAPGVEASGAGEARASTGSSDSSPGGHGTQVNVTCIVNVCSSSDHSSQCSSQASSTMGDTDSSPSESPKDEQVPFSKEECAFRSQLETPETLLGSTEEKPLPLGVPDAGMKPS
Experimental: as §1

Measured: binding result

T1 sequence (P36941 31-435 limits assumed): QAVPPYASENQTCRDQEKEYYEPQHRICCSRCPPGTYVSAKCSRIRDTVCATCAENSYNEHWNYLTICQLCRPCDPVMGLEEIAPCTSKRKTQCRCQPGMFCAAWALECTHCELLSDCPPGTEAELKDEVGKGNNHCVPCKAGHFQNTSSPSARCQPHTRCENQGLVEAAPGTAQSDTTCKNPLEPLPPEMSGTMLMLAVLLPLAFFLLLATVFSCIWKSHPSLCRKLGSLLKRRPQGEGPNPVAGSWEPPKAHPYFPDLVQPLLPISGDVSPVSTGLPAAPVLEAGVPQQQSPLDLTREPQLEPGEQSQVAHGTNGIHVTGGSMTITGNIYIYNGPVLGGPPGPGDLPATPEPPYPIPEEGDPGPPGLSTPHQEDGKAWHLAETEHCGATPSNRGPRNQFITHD

B1: FLAG-tagged soluble form of TNF-gamma-beta (aa 72-251) (ligand, human, UniProt O95150 72-251, looked up)
chain: LKGQEFAPSHQQVYAPLRADGDKPRAHLTVVRQTPTQHFKNQFPALHWEHELGLAFTKNRMNYTNKFLLIPESGDYFIYSQVTFRGMTSECSEIRQAGRPNKPDSITVVITKVTDSYPEPTQLLMGTKSVCEVGSNWFQPIYLGAMFSLQEGDKLMVNVSDISLVDYTKEDKTFFGAFLL
notes: also called FLAG-TL1β; FLAG-TNF-gamma-beta; not shown: FLAG tag of vector pFLAGCMV1
no binding: all assays above
